Experimental findings from PMC3269026 (Frontiers in Microbiology, 2012) are described below.

In this assay the target is T1, translocated intimin receptor (Tir) of EPEC, delivered to HEp-2 cells (EPEC (strain JPN15.96), UniProt B7UM99 1-550).
T1 sequence: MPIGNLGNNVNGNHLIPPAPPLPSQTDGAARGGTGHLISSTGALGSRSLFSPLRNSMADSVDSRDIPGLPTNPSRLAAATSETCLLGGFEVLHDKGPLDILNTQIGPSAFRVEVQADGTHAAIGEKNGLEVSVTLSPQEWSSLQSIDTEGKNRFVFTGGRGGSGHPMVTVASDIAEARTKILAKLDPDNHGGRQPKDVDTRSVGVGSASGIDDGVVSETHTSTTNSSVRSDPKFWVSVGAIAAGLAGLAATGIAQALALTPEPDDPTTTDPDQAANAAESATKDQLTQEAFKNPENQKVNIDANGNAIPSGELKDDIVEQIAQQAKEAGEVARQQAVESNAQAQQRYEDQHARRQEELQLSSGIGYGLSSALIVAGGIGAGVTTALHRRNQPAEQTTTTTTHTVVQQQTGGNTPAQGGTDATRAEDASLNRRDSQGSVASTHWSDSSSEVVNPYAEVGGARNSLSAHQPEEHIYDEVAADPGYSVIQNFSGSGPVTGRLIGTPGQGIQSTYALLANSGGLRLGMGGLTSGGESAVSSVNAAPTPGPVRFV
Description: bacterial adherence to Tir-primed cells.

B1: EHEC intimin (natural protein)
chain: NGENYFKLGSDSKLLTHDSYQNRLFYTLKTGETVADLSKSQDINLSTIWSLNKHLYSSESEMMKAAPGQQIILPLKKLPFEYSALPLLGSAPLVAAGGVAGHTNKLTKMSPDVTKSNMTDDKALNYAAQQAASLGSQLQSRSLNGDYAKDTALGIAGNQASSQLQAWLQHYGTAEVNLQSGNNFDGSSLDFLLPFYDSEKMLAFGQVGARYIDSRFTANLGAGQRFFLPANMLGYNVFIDQDFSGDNTRLGIGGEYWRDYFKSSVNGYFRMSGWHESYNKKDYDERPANGFDIRFNGYLPSYPALGAKLIYEQYYGDNVALFNSDKLQSNPGAATVGVNYTPIPLVTMGIDYRHGTGNENDLLYSMQFRYQFDKSWSQQIEPQYVNELRTLSGSRYDLVQRNNNIILEYKKQDILSLNIPHDINGTEHSTQKIQLIVKSKYGLDRIVWDDSALRSQGGQIQHSGSQSAQDYQAILPAYVQGGSNIYKVTARAYDRNGNSSNNVQLTITVLSNGQVVDQVGVTDFTADKTSAKADNADTITYTATVKKNGVAQANVPVSFNIVSGTATLGANSAKTDANGKATVTLKSSTPGQVVVSAKTAEMTSALNASAVIFFDQTKASITEIKADKTTAVANGKDAIKYTVKVMKNGQPVNNQSVTFSTNFGMFNGKSQTQATTGNDGRATITLTSSSAGKATVSATVSDGAEVKATEVTFFDELKIDNKVDIIGNNVRGELPNIWLQYGQFKLKASGGDGTYSWYSENTSIATVDASGKVTLNGKGSVVIKATSGDKQTVSYTIKAPSYMIKVDKQAYYADAMSICKNLLPSTQTVLSDIYDSWGAANKYSHYSSMNSITAWIKQTSSEQRSGVSSTYNLITQNPLPGVNVNTPNVYAVCVE
Consider B1, for which the “fold binding over C. rodentiumΔeae” value is roughly 20 fold.
